Test results from US8748182B2, “Mutant proteins and methods for producing them” (Heptares Therapeutics Limited, priority 2007, dated 2014).
Changes are numbered by the printed parent chain. Names and notes keep the numbering of the source.

B1: P399A: NTR point mutant (protein, UniProt P20789 1-424, looked up, variant P399A)
Neurotensin receptor type 1: MHLNSSVPQGTPGEPDAQPFSGPQSEMEATFLALSLSNGSGNTSESDTAGPNSDLDVNTDIYSKVLVTAIYLALFVVGTVGNSVTAFTLARKKSLQSLQSTVHYHLGSLALSDLLILLLAMPVELYNFIWVHHPWAFGDAGCRGYYFLRDACTYATALNVASLSVERYLAICHPFKAKTLMSRSRTKKFISAIWLASALLAIPMLFTMGLQNRSGDGTHPGGLVCTPIVDTATVKVVIQVNTFMSFLFPMLVISILNTVIANKLTVMVHQAAEQGRVCTVGTHNGLEHSTFNMTIEPGRVQALRHGVLVLRAVVIAFVVCWLPYHVRRLMFCYISDEQWTTFLFDFYHYFYMLTNALFYVSSAINPILYNLVSANFRQVFLSTLACLCPGWRHRRKKRATFSRKPNSMSSNHAFSTSATRETLY
B2: A177L: NTR point mutant (protein, UniProt P20789 1-424, looked up, variant A177L)
Neurotensin receptor type 1: B1 Neurotensin receptor type 1 with A177L, A399P
B3: S100A: NTR point mutant (protein, UniProt P20789 1-424, looked up, variant S100A)
Neurotensin receptor type 1: B1 Neurotensin receptor type 1 with S100A, A399P
B4: M250A: NTR point mutant (protein, UniProt P20789 1-424, looked up, variant M250A)
Neurotensin receptor type 1: B1 Neurotensin receptor type 1 with M250A, A399P
B5: S182A: NTR point mutant (protein, UniProt P20789 1-424, looked up, variant S182A)
Neurotensin receptor type 1: B1 Neurotensin receptor type 1 with S182A, A399P
B6: F147A: NTR point mutant (protein, UniProt P20789 1-424, looked up, variant F147A)
Neurotensin receptor type 1: B1 Neurotensin receptor type 1 with F147A, A399P
B7: H393A: NTR point mutant (protein, UniProt P20789 1-424, looked up, variant H393A)
Neurotensin receptor type 1: B1 Neurotensin receptor type 1 with H393A, A399P
B8: L111A: NTR point mutant (protein, UniProt P20789 1-424, looked up, variant L111A)
Neurotensin receptor type 1: B1 Neurotensin receptor type 1 with L111A, A399P
B9: L109A: NTR point mutant (protein, UniProt P20789 1-424, looked up, variant L109A)
Neurotensin receptor type 1: B1 Neurotensin receptor type 1 with L109A, A399P
B10: C386A: NTR point mutant (protein, UniProt P20789 1-424, looked up, variant C386A)
Neurotensin receptor type 1: B1 Neurotensin receptor type 1 with C386A, A399P
B11: F189A: NTR point mutant (protein, UniProt P20789 1-424, looked up, variant F189A)
Neurotensin receptor type 1: B1 Neurotensin receptor type 1 with F189A, A399P
B12: T179A: NTR point mutant (protein, UniProt P20789 1-424, looked up, variant T179A)
Neurotensin receptor type 1: B1 Neurotensin receptor type 1 with T179A, A399P
B13: H103A: NTR point mutant (protein, UniProt P20789 1-424, looked up, variant H103A)
Neurotensin receptor type 1: B1 Neurotensin receptor type 1 with H103A, A399P
B14: A155L: NTR point mutant (protein, UniProt P20789 1-424, looked up, variant A155L)
Neurotensin receptor type 1: B1 Neurotensin receptor type 1 with A155L, A399P
B15: M293A: NTR point mutant (protein, UniProt P20789 1-424, looked up, variant M293A)
Neurotensin receptor type 1: B1 Neurotensin receptor type 1 with M293A, A399P
B16: W391A: NTR point mutant (protein, UniProt P20789 1-424, looked up, variant W391A)
Neurotensin receptor type 1: B1 Neurotensin receptor type 1 with W391A, A399P
B17: K176A: NTR point mutant (protein, UniProt P20789 1-424, looked up, variant K176A)
Neurotensin receptor type 1: B1 Neurotensin receptor type 1 with K176A, A399P
B18: A90L: NTR point mutant (protein, UniProt P20789 1-424, looked up, variant A90L)
Neurotensin receptor type 1: B1 Neurotensin receptor type 1 with A90L, A399P
B19: Y349A: NTR point mutant (protein, UniProt P20789 1-424, looked up, variant Y349A)
Neurotensin receptor type 1: B1 Neurotensin receptor type 1 with Y349A, A399P
B20: D345A: NTR point mutant (protein, UniProt P20789 1-424, looked up, variant D345A)
Neurotensin receptor type 1: B1 Neurotensin receptor type 1 with D345A, A399P
B21: R183A: NTR point mutant (protein, UniProt P20789 1-424, looked up, variant R183A)
Neurotensin receptor type 1: B1 Neurotensin receptor type 1 with R183A, A399P
B22: Y351A: NTR point mutant (protein, UniProt P20789 1-424, looked up, variant Y351A)
Neurotensin receptor type 1: B1 Neurotensin receptor type 1 with Y351A, A399P
B23: D139A: NTR point mutant (protein, UniProt P20789 1-424, looked up, variant D139A)
Neurotensin receptor type 1: B1 Neurotensin receptor type 1 with D139A, A399P
B24: N262A: NTR point mutant (protein, UniProt P20789 1-424, looked up, variant N262A)
Neurotensin receptor type 1: B1 Neurotensin receptor type 1 with N262A, A399P
B25: A385L: NTR point mutant (protein, UniProt P20789 1-424, looked up, variant A385L)
Neurotensin receptor type 1: B1 Neurotensin receptor type 1 with A385L, A399P
B26: K397A: NTR point mutant (protein, UniProt P20789 1-424, looked up, variant K397A)
Neurotensin receptor type 1: B1 Neurotensin receptor type 1 with K397A, A399P
B27: S362A: NTR point mutant (protein, UniProt P20789 1-424, looked up, variant S362A)
Neurotensin receptor type 1: B1 Neurotensin receptor type 1 with S362A, A399P
B28: A86L: NTR point mutant (protein, UniProt P20789 1-424, looked up, variant A86L)
Neurotensin receptor type 1: B1 Neurotensin receptor type 1 with A86L, A399P
B29: V268A: NTR point mutant (protein, UniProt P20789 1-424, looked up, variant V268A)
Neurotensin receptor type 1: B1 Neurotensin receptor type 1 with V268A, A399P
B30: 1253A: NTR point mutant (Ile 253) (protein, UniProt P20789 1-424, looked up, variant I253A)
Neurotensin receptor type 1: B1 Neurotensin receptor type 1 with I253A, A399P
B31: T207A: NTR point mutant (protein, UniProt P20789 1-424, looked up, variant T207A)
Neurotensin receptor type 1: B1 Neurotensin receptor type 1 with T207A, A399P
B32: L256A: NTR point mutant (protein, UniProt P20789 1-424, looked up, variant L256A)
Neurotensin receptor type 1: B1 Neurotensin receptor type 1 with L256A, A399P

Experiment: Thermostability of neurotensin receptor (NTR) mutants (3H-neurotensin binding)
Assay type: physicochemical
Details: for thermostability, 3H-neurotensin (agonist) binding after the heating step: heated in the absence of the agonist; for thermostability, heated in the presence of 3H-neurotensin: Ligand(+) format
Method: FIG. 12 Flow chart showing the two different assay formats of ligand (+) and ligand (−) used to determine receptor thermostablity.
3. Mutants tested for thermostability by heating in the absence of the agonist were re-tested using a slightly different assay where the mutants were heated in the presence of ^3H-neurotensin (Ligand(+) format in FIG. 12). […] All of these also have increased thermostability. • 5. Preferred combinations are • a. Nag7m F358A+A86L+1260A+F342A Tm 51° C. (neurotensin bound) • b. Nag7n F358A+H103A+1260A+F342A Tm 51° C. (neurotensin bound) • Wildtype NTR has a Tm of 35° C. with neurotensin bound.

Row | Molecule | thermostability, 3H-neurotensin (agonist) binding after the heating step | thermostability, heated in the presence of 3H-neurotensin
1 | B1 | small but significant increase in thermostability | 
2 | B2 |  | improved thermostability
3 | B3 | small but significant increase in thermostability | 
4 | B4 |  | improved thermostability
5 | B5 | small but significant increase in thermostability | 
6 | B6 | small but significant increase in thermostability | 
7 | B7 | small but significant increase in thermostability | 
8 | B8 | small but significant increase in thermostability | 
9 | B9 | small but significant increase in thermostability | 
10 | B10 | small but significant increase in thermostability | 
11 | B11 | small but significant increase in thermostability | 
12 | B12 | small but significant increase in thermostability | 
13 | B13 | small but significant increase in thermostability | improved thermostability
14 | B14 | small but significant increase in thermostability | 
15 | B15 | small but significant increase in thermostability | 
16 | B16 | small but significant increase in thermostability | 

Row | Molecule | thermostability, 3H-neurotensin (agonist) binding after the heating step | thermostability, heated in the presence of 3H-neurotensin
17 | B17 | small but significant increase in thermostability | 
18 | B18 | small but significant increase in thermostability | improved thermostability
19 | B19 | small but significant increase in thermostability | 
20 | B20 | small but significant increase in thermostability | 
21 | B21 |  | improved thermostability
22 | B22 | small but significant increase in thermostability | 
23 | B23 | small but significant increase in thermostability | 
24 | B24 | small but significant increase in thermostability | 
25 | B25 | small but significant increase in thermostability | improved thermostability
26 | B26 | small but significant increase in thermostability | 
27 | B27 | small but significant increase in thermostability | improved thermostability
28 | B28 | small but significant increase in thermostability | improved thermostability
29 | B29 | small but significant increase in thermostability | 
30 | B30 |  | improved thermostability
31 | B31 | small but significant increase in thermostability | 
32 | B32 | small but significant increase in thermostability | 
